From patent publication US20120219565A1 (Merck Sharp & Dohme, published 2012) come the findings set out here.

For assay [1], the target named is T1, Cynomolgus monkey TSLP (expressed in HEK293 cells) (cynomolgus monkey, UniProt A0A7N9CAT7 29-159).
T1 construct: also called cyno TSLP; cTSLP
Nature of the assay: SPR, BIAcore T100, TSLP immobilised on CM5, antibody injected, bivalent analyte model, 37 °C.

The target of assay [2] is T2, Human TSLP purchased from R&D and expressed in E. coli (human, UniProt Q969D9 29-159). Nature of the assay: cell-based or functional assay.
Assay [3] addresses T1, Cynomolgus monkey TSLP (expressed in …). In words: cell-based or functional assay.
Assay [4] concerns the target T3, Recombinant human TSLP (expressed in HEK293 cells) (human, UniProt Q969D9 29-159). In words: cell-based or functional assay.
Assay [5] concerns the target T3, Recombinant human TSLP (expressed in …). Nature of the assay: KinExA 3000, solution equilibrium, 25 °C, particles coated with biotinylated human TSLP. In general terms: A kinetic exclusion assay measures how much of one partner remains free in solution.
Assay [6] addresses T2, Human TSLP purchased from R&D and …. In words: SPR, BIAcore T100, R&D E. coli TSLP immobilised on CM5, antibody injected, bivalent analyte model, 37 °C. For orientation: Surface plasmon resonance follows binding to a sensor surface in real time, without labels.
For assay [7] the target is unchanged. In words: SPR, BIAcore T100, R&D E. coli TSLP immobilised on CM5, antibody injected, bivalent analyte model, room temperature.
Assay [8] addresses T1, Cynomolgus monkey TSLP (expressed in …). In words: SPR, BIAcore T100, TSLP immobilised on CM5, antibody injected, bivalent analyte model, room temperature.
Assay [9] addresses Human TSLP purchased from R&D and expressed in E. coli (human) (UniProt Q969D9). In words: cell-based or functional assay.
For assay [10], the target named is Cynomolgus monkey TSLP (expressed in HEK293 cells) (cynomolgus monkey). Nature of the assay: cell-based or functional assay.
Assay [11] concerns the target Recombinant human TSLP (expressed in HEK293 cells) (human) (UniProt Q969D9). In words: cell-based or functional assay.
For assay [12] the target is unchanged. Nature of the assay: KinExA 3000, solution equilibrium, 25 °C, particles coated with biotinylated human TSLP.
Assay [13] concerns the target Cynomolgus monkey TSLP (expressed in HEK293 cells) (cynomolgus monkey). In words: SPR, BIAcore T100, TSLP immobilised on CM5, antibody injected, bivalent analyte model, room temperature.
The target of assay [14] is Recombinant human TSLP (expressed in HEK293 cells) (human) (UniProt Q969D9). The assay is described as above.

Values joined by “and” are separate entries in the source; they are usually repeats but may differ in a detail not shown here. Equal entries are not always repeated.

B1: Humanized anti hu TSLP mAb 23B12 (comprising the heavy chain of SEQ ID NO:11 and the light chain of SEQ ID NO:12 of the instant application) (antibody, human IgG1, kappa, V domains shown)
VH: QVQLVQSGAEVKKPGASVKVSCKASGYIFTDYAMHWVRQAPGQGLEWMGTFIPLLDTSDYAQKFQGRVTMTADTSTSTAYMELRSLRSDDTAVYYCARMGVTHSYVMDAWGQGTLVTVSS
VL: EIVLTQSPGTLSLSPGERATLSCRASQPISISVHWYQQKPGQAPRLLIYFASQSISGIPDRFSGSGSGTDFTLTISRLEPEDFAVYYCQQTFSLPYTFGQGTKVEIKR
notes: Vector deposited as ATCC PTA-10482; also called Antibody 4
As to B1, the Kd was 0.381 nM in assay [1]; 0.0032 nM in assay [5]; 0.299 nM in assay [6]; 0.339 nM in assay [7]; 0.138 nM and 0.08 nM and 0.115 nM and 0.127 nM in [8]. The “EC 50, inhibition of TSLP-induced proliferation of Ba/F3-TSLPR-IL7Ra cells” value is 0.137 µg/mL and 0.215 µg/mL in [2]; 0.117 µg/mL and 0.077 µg/mL and 0.158 µg/mL and 0.067 µg/mL in [3]; 0.041 µg/mL and 0.024 µg/mL in [4].

B2: Parental rat antibody 23B12 (antibody, from a related filing, V domains shown)
VH: EEKLQQSGDDLVRPGAAVKMSCKASGYIFTDYAMHWVKQRPGQGLEWIGTFIPLLDTSDYNQNFKGRATLTADKSSNTAYMELSRLTSEDSAVYYCARMGVTHSYVMDAWGQGASVTVSS
VL: DIVLTQSPATLSVTPGESVSLSCRASQPISISVHWFQQKSNESPRLLIKFASQSISGIPSRFSGSGSGTDFTLNINRVESEDFSVYYCQQTFSLPYTFGTGTKLELKR
Turning to B2, the EC 50, inhibition of TSLP-induced proliferation of Ba/F3-TSLPR-IL7Ra cells in [9] is 0.083 µg/mL; in assay [10], 0.064 µg/mL and 0.122 µg/mL and 0.054 µg/mL; in assay [11] it was 0.022 µg/mL and 0.025 µg/mL and 0.014 µg/mL. Moreover, the Kd in assay [12] was 0.0011 nM; in assay [13], 0.159 nM; in assay [14] it was 0.141 nM and 0.13 nM.
